According to US10800847:

Columns and labels:
HLA-B*1502 (B75) (human) = assay: iBead MFI against regular-bead MFI, IVIg diluted 1:8
HLA-B*1301 (B13) (human) = assay: as above
HLA-B*1402 (B65) (human) = assay: as above
[1] = biological target: Serum albumin on negative control beads (HSA/BSA) (human or bovine); assay: as above
HLA-B*1511 (B75) (human) = assay: as above
HLA-B*1510 (B71) (human) = assay: as above
HLA-B*0801 (B8) (human) = assay: as above
HLA-B*1512 (B76) (human) = assay: as above
HLA-B*1801 (B18) (human) = assay: as above
HLA-B*1401 (B64) (human) = assay: as above
HLA-B*1513 (B77) (human) = assay: as above
HLA-B*1501 (B62) (human) = assay: as above
HLA-B*1302 (B13) (human) = assay: as above
HLA-B*0702 (B7) (human) = assay: as above
HLA-B*1503 (B72) (human) = assay: as above
[2] = biological target: HLA-Cw*0501 (Cw5) (human); assay: Luminex, iBeads (#6), 1:8
[3] = biological target: HLA-Cw*0304 (Cw10) (human); assay: Luminex, iBeads (#6), 1:8
[4] = biological target: HLA-Cw*1802 (Cw18) (human); assay: Luminex, iBeads (#6), 1:8
[5] = biological target: HLA-Cw*1203 (Cw12) (human); assay: Luminex, iBeads (#6), 1:8
[6] = biological target: HLA-Cw*1601 (Cw16) (human); assay: Luminex, iBeads (#6), 1:8
[7] = biological target: HLA-Cw*0303 (Cw9) (human); assay: Luminex, iBeads (#6), 1:8
[8] = biological target: HLA-Cw*0602 (Cw6) (human); assay: Luminex, iBeads (#6), 1:8
HLA-B*8201 (B82) (human) = assay: Luminex, iBeads (#6), 1:8
[9] = biological target: HLA-Cw*1402 (Cw14) (human); assay: Luminex, iBeads (#6), 1:8
[10] = biological target: HLA-Cw*0702 (Cw7) (human); assay: Luminex, iBeads (#6), 1:8
[11] = biological target: HLA-Cw*0302 (Cw10) (human); assay: Luminex, iBeads (#6), 1:8
[12] = biological target: HLA-Cw*1502 (Cw15) (human); assay: Luminex, iBeads (#6), 1:8
[13] = biological target: HLA-Cw*1701 (Cw17) (human); assay: Luminex, iBeads (#6), 1:8
[14] = biological target: HLA-A*6901 (A69) single antigen on Luminex beads (human); assay: Luminex single antigen bead assay, iBeads vs regular beads, IVIg 1:8
[15] = biological target: HLA-A*8001 (A80) single antigen on Luminex beads (human); assay: as above
[16] = biological target: Serum albumin on negative control beads (HSA/BSA) (human or bovine); assay: Luminex regular beads (#7), IVIg diluted 1:8
[17] = biological target: HLA-A*3301 (A33) single antigen on beads (human); assay: Luminex iBeads (#6), IVIg 1:8
[18] = biological target: HLA-A*3401 (A34) single antigen on beads (human); assay: Luminex iBeads (#6), IVIg 1:8
[19] = biological target: HLA-A*3201 (A32) single antigen on beads (human); assay: Luminex iBeads (#6), IVIg 1:8
[20] = biological target: HLA-A*3001 (A30) single antigen on beads (human); assay: Luminex iBeads (#6), IVIg 1:8
[21] = biological target: HLA-A*3002 (A30) single antigen on beads (human); assay: Luminex iBeads (#6), IVIg 1:8
[22] = biological target: HLA-A*3601 (A36) single antigen on beads (human); assay: Luminex iBeads (#6), IVIg 1:8
[23] = biological target: HLA-A*6601 (A66) single antigen on beads (human); assay: Luminex iBeads (#6), IVIg 1:8
[24] = biological target: HLA-A*6602 (A66) single antigen on beads (human); assay: Luminex iBeads (#6), IVIg 1:8
[25] = biological target: HLA-A*3101 (A31) single antigen on beads (human); assay: Luminex iBeads (#6), IVIg 1:8
[26] = biological target: HLA-A*3303 (A33) single antigen on beads (human); assay: Luminex iBeads (#6), IVIg 1:8
[27] = biological target: HLA-A*2902 (A29) single antigen on beads (human); assay: Luminex iBeads (#6), IVIg 1:8
[28] = biological target: HLA-A*3402 (A34) single antigen on beads (human); assay: Luminex iBeads (#6), IVIg 1:8
[29] = biological target: HLA-A*4301 (A43) single antigen on beads (human); assay: Luminex iBeads (#6), IVIg 1:8
[30] = biological target: HLA-A*6801 (A68) single antigen on beads (human); assay: Luminex iBeads (#6), IVIg 1:8

## IVIg Octagam (Octapharma, Lachen, Switzerland) (antibody)
HLA-B*1502 (B75) (human)
  Difference % (iBead vs regular bead): -100%
HLA-B*1301 (B13) (human)
  Difference % (iBead vs regular bead): -99%
HLA-B*1402 (B65) (human)
  Difference % (iBead vs regular bead): -100%
[1]
  Difference % (iBead vs regular bead): -29%
HLA-B*1511 (B75) (human)
  Difference % (iBead vs regular bead): -70%
HLA-B*1510 (B71) (human)
  Difference % (iBead vs regular bead): -100%
HLA-B*0801 (B8) (human)
  Difference % (iBead vs regular bead): -95%
HLA-B*1512 (B76) (human)
  Difference % (iBead vs regular bead): 23%
HLA-B*1801 (B18) (human)
  Difference % (iBead vs regular bead): -100%
HLA-B*1401 (B64) (human)
  Difference % (iBead vs regular bead): -96%
HLA-B*1513 (B77) (human)
  Difference % (iBead vs regular bead): -89%
HLA-B*1501 (B62) (human)
  Difference % (iBead vs regular bead): -100%
HLA-B*1302 (B13) (human)
  Difference % (iBead vs regular bead): -100%
HLA-B*0702 (B7) (human)
  Difference % (iBead vs regular bead): -100%
HLA-B*1503 (B72) (human)
  Difference % (iBead vs regular bead): -100%
[2]
  MFI: 1510 MFI
[3]
  MFI: 1440 MFI
[4]
  MFI: 873 MFI
[5]
  MFI: 1620 MFI
[6]
  MFI: 1110 MFI
[7]
  MFI: 1220 MFI
[8]
  MFI: 586 MFI
HLA-B*8201 (B82) (human)
  MFI: 510 MFI
[9]
  MFI: 976 MFI
[10]
  MFI: 1620 MFI
[11]
  MFI: 1170 MFI
[12]
  MFI: 255 MFI
[13]
  MFI: 2710 MFI
[14]
  Difference % (iBead MFI against regular bead MFI): -53%
[15]
  Difference % (iBead MFI against regular bead MFI): -63%
[16]
  MFI: 2340 MFI
[17]
  MFI: 1360 MFI
[18]
  MFI: 2060 MFI
[19]
  MFI: 518 MFI
[20]
  MFI: 510 MFI
[21]
  MFI: 369 MFI
[22]
  MFI: 572 MFI
[23]
  MFI: 1020 MFI
[24]
  MFI: 684 MFI
[25]
  MFI: 0 MFI
[26]
  MFI: 152 MFI
[27]
  MFI: 2270 MFI
[28]
  MFI: 0 MFI
[29]
  MFI: 1690 MFI
[30]
  MFI: 0 MFI
